Experimental data: paper PMC5020499, “Crystal structures of archaeal 2-oxoacid:ferredoxin oxidoreductases from Sulfolobus tokodaii” (Scientific Reports, 2016)

Experiments:
[1] = target: the molecule itself; experiment: crystal structure; StOFOR1 co-crystallised with 50 mM 2-oxobutyrate and 1 mM CoA; sitting drop, 25 °C, 15% PEG3350, 0.1 M Tris-HCl pH 8.5, 0.1 M NaBr; 2.5 Å; two protomers in the asymmetric unit
[2] = target: T1, StOFOR2 a-subunit (STK_24350) (Sulfolobus tokodaii, UniProt Q96XT2 1-628); experiment: crystal structure; StOFOR2 ligand-free (2.1 Å) and soaked with 50 mM pyruvate (2.2 Å); sitting drop, 20 °C, 0.7 M ammonium tartrate dibasic, 0.1 M Tris-HCl pH 8.5; one protomer in the asymmetric unit; details: both partners purified
T1 construct: a-subunit of 2-oxoacid:ferredoxin oxidoreductase StOFOR2, STK_24350, Sulfolobus tokodaii; gene amplified from genomic DNA with primers from the start codon to the stop codon; domains III (1a-228a), I (228a-500a), II (500a-627/628a); stk_23000 in pOFORAB was replaced with stk_24350; No tag is mentioned; A selenomethionine-labelled form (E. coli B834 (DE3)) was used for phasing only; also called …
T1 sequence (looked up): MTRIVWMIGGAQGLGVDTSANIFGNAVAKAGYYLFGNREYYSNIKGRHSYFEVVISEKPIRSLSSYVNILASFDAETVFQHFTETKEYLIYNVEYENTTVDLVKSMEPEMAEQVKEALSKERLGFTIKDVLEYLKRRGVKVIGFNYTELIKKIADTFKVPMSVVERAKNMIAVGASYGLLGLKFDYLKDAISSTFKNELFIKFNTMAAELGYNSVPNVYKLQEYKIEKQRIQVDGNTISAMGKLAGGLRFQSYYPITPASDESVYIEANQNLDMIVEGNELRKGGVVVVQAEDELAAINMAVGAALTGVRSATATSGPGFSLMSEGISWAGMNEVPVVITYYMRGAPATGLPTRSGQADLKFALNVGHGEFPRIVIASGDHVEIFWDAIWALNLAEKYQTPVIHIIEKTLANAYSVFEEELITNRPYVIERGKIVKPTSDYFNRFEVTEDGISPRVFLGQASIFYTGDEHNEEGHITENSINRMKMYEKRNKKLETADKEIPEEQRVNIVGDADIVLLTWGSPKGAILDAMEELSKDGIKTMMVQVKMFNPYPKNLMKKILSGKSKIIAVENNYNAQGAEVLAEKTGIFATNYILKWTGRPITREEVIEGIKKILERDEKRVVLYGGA

[3] = target: the molecule itself; experiment: as above

B1: StOFOR1 protomer (heterodimer of a-subunit STK_23000 and b-subunit STK_22980) (complex, Sulfolobus tokodaii strain 7)
chain 1: MRLSWVIGGAQGTGIDTAANIFGNAVASAGYYIYGNREYYSNIKGRHSYFSLTISDKRVRSNTQKIDILVSFDAETVFQHFYDVKDILIYNKAVETTKIDAVQSMEPELAERIKDFLTKQGYETTVKGALEYASKNNVTLIPVNYDEIAKKVADEMKVPLSVTERVKNIVGITISYKLLGLDVNYLIEAINSTFKQDLYRKMNELAVKDSYDIVESRYNLKPSSKERRRFWLDGNTAVAIGKIYGGVRFQSYYPITPASDESVYIEAHQDVLMEDPITGDKKKGTIVVVQAEDELAAINMAIGAALTGVRAATATSGPGFSLMVEGLGWAGMNEVPVVITYYIRGGPSTGLPTRTAQSDLIFPIFAGHGEFPKIVLASGDHAEAFKDAIWALNLAEKYQTPVIHLVEKTLANSYSTIPYEELELDKLKAERGKIVESGDISYKRFKFTEDGISPRAFLGKATMYYTGDEHNEEGHISEDVVNRTMMYEKRMKKLEVADKEIPEESRVKIYGDLNSRNLIITWGSPTGVLRDILEESNFDFTLLQIRMFSPFPKNLVSKLMEGRDKIITVEGNYLAQTSLLVKMYTGKDVTNSILKWNGRPFLRDELEEALIKVIKDGEKRVVLNGGI
chain 2: PQWNDWCPGCGNFGILNAEQQAIVELGVDTKNVVVVSGIGCSGKIPHFFRTPISGVHTLHGRAIAFATGIKLSNPDLVVIVNGGDGDLLGIGAGHFVAAGRRNVDMVVILHDNGVYGLTKGQASPTLKRGEKPKSLPRPNINDAVNPIALAISSGYTFVARGYAYDVKHLKELIKSAIKHKGLALIDVLQPCPTYNDINTKEWYDKRIYKLDTLPDWDPVVKKPEEVNEKIKRAIDKSLEWGDRIPIGIFYQNELVPSYEERIKANSPAYLDYTPAKQLIEKEGKLTTIIDPLLKEREVD
notes: a-subunit of StOFOR1, STK_23000, Sulfolobus tokodaii strain 7, 70 kDa; as the chain of m1; b-subunit of StOFOR1, STK_22980, Sulfolobus tokodaii strain 7, 34 kDa; as the chain of m2; One protomer is the pair of a- and b-subunits that holds one TPP; Two protomers form the (ab)2 enzyme; Cofactors: TPP, Mg2+, [4Fe-4S]; also called STK_23000/STK_22980; source: E. coli C43 (DE3), both subunits …
stoichiometry N [1]: 2

B2: StOFOR2 b-subunit (STK_24330) (natural protein, Sulfolobus tokodaii, UniProt Q96XT4 1-304, looked up)
chain: MVERKPVFVDWCPGCGDFGILRAEEMAIRELGINPKSVVIVSGIGCSGKIPHFMNLPISGVHTLHGRSIAFATGIKLSNPSLEVIVNVGDGDGLGIGMGHFVHLGRRNIDIAVLVHNNGVYGLTKGQASPTLHRGEKTKSLPKPNIMDAVNPLAVALAAGYTFVARGYAYDVMHLKELIKKAILHKGSALVDILQPCPTYNDINTKEWYDKRVYKLDNVPGWDPVVRKEEEAQKKFEQAIMKSYEWGEKIPIGIFYQNELVPTFEDRLTSNIPNYREYYPAKQQIEINGISTTKIDELIKAKRI
notes: b-subunit of 2-oxoacid:ferredoxin oxidoreductase StOFOR2, STK_24330, Sulfolobus tokodaii; gene amplified from genomic DNA with primers from the start codon to the stop codon; domain VI (1b-305b); stk_22980 in pOFORAB was replaced with stk_24330; No tag is mentioned; Holds the [4Fe-4S] cluster; also called b-subunit of StOFOR2; source: E. coli C43 (DE3), expressed with the a-subunit, purified …
binding result [2]: binds

B3: StOFOR2 protomer (heterodimer of a-subunit STK_24350 and b-subunit STK_24330) (complex, Sulfolobus tokodaii)
chain 1: MTRIVWMIGGAQGLGVDTSANIFGNAVAKAGYYLFGNREYYSNIKGRHSYFEVVISEKPIRSLSSYVNILASFDAETVFQHFTETKEYLIYNVEYENTTVDLVKSMEPEMAEQVKEALSKERLGFTIKDVLEYLKRRGVKVIGFNYTELIKKIADTFKVPMSVVERAKNMIAVGASYGLLGLKFDYLKDAISSTFKNELFIKFNTMAAELGYNSVPNVYKLQEYKIEKQRIQVDGNTISAMGKLAGGLRFQSYYPITPASDESVYIEANQNLDMIVEGNELRKGGVVVVQAEDELAAINMAVGAALTGVRSATATSGPGFSLMSEGISWAGMNEVPVVITYYMRGAPATGLPTRSGQADLKFALNVGHGEFPRIVIASGDHVEIFWDAIWALNLAEKYQTPVIHIIEKTLANAYSVFEEELITNRPYVIERGKIVKPTSDYFNRFEVTEDGISPRVFLGQASIFYTGDEHNEEGHITENSINRMKMYEKRNKKLETADKEIPEEQRVNIVGDADIVLLTWGSPKGAILDAMEELSKDGIKTMMVQVKMFNPYPKNLMKKILSGKSKIIAVENNYNAQGAEVLAEKTGIFATNYILKWTGRPITREEVIEGIKKILERDEKRVVLYGGA
chain 2: MVERKPVFVDWCPGCGDFGILRAEEMAIRELGINPKSVVIVSGIGCSGKIPHFMNLPISGVHTLHGRSIAFATGIKLSNPSLEVIVNVGDGDGLGIGMGHFVHLGRRNIDIAVLVHNNGVYGLTKGQASPTLHRGEKTKSLPKPNIMDAVNPLAVALAAGYTFVARGYAYDVMHLKELIKKAILHKGSALVDILQPCPTYNDINTKEWYDKRVYKLDNVPGWDPVVRKEEEAQKKFEQAIMKSYEWGEKIPIGIFYQNELVPTFEDRLTSNIPNYREYYPAKQQIEINGISTTKIDELIKAKRI
notes: a-subunit of StOFOR2, STK_24350, Sulfolobus tokodaii; primers from the start codon to the stop codon; as the chain of m3; b-subunit of StOFOR2, STK_24330, Sulfolobus tokodaii; as the chain of m4; One protomer is the pair of a- and b-subunits that holds one TPP; Two crystallographically identical protomers form the (ab)2 enzyme; Cofactors: TPP, Mg2+, [4Fe-4S]; also called STK_24350/STK_24330; …
stoichiometry N [3]: 2
